# Measured values published in paper PMC2216138 (The Journal of General Physiology, 1988).
# Like-named read-outs stand apart in the source and are kept apart here.
# B1: Charybdotoxin (natural protein)
# chain: QFTNVSCTTSKECWSVCQRLHNTSRGKCMNKKCRCYS
# Tests used:
# [1] = target: T1, High-conductance, Ca2+-activated K+ channel from rat skeletal muscle (rat (endogenous in skeletal muscle), UniProt Q62976 1-1209); assay: single-channel recording in planar lipid bilayers
# [2] = target: T1, High-conductance, Ca2+-activated K+ …; assay: single-channel recording in planar lipid bilayers; remark: listed apart in the source
# T1 sequence (Q62976 whole entry): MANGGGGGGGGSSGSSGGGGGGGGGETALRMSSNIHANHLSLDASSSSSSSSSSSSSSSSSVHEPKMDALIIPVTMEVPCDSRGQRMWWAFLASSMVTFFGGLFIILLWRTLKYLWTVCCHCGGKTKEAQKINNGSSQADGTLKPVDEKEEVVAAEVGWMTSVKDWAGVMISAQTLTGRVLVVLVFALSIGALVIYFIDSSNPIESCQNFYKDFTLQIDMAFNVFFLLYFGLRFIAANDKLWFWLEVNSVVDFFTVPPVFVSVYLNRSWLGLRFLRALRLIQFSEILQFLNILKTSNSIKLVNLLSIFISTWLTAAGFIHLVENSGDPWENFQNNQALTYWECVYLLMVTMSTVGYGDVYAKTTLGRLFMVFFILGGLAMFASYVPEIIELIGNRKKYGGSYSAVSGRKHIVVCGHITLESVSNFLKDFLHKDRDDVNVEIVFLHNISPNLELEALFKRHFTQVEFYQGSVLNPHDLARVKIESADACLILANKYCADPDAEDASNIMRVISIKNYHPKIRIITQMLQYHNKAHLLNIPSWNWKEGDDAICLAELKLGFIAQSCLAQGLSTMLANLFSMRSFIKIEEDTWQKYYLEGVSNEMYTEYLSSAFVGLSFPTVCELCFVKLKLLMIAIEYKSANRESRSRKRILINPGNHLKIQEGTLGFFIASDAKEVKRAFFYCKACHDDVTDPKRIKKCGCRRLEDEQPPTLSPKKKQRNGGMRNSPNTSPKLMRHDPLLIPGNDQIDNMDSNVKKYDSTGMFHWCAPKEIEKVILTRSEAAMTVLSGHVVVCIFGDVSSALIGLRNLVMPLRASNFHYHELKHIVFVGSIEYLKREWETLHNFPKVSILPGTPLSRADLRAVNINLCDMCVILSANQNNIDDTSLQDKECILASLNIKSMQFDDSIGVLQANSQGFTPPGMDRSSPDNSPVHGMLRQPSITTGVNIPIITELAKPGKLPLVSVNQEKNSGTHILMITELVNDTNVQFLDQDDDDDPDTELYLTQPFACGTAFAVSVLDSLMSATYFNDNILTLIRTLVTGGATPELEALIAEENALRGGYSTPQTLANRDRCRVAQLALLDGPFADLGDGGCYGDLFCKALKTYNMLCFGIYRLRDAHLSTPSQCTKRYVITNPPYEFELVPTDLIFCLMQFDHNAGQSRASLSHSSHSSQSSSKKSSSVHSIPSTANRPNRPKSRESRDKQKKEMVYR
binder,measurement,setting,value
B1,koff,[1],~0.01 s⁻¹
same,koff,[2],0.01 s⁻¹
